Source: patent publication US20230279105A1 (SINGLE CELL TECHNOLOGY, published 2023)

Target: T1, Human TIM-3 Human Fc tagged protein (human, fluorescently labeled with HiLyte Fluor 555 (sites not given))
T1 construct: Bought construct; also called TIM-3 protein tagged with human Fc; ACROBiosystems catalog no: TM3-H5258
Experiment: capture slide probed with labeled TIM-3-Fc;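 note: IgG from single CD138-enriched plasma cells, isolated from lymphocytes, immobilized on a derivatized glass slide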

Binder | binding result
SCT-Fa007 (antibody, V domains shown, murine IgG) VH: EVKLVESEGGLVHPGSSMKLSCTASGFTFSDYYMAWVRQVPEKGLEWIANINFDGSGTYYLDSLKSRFIISRDNGKNILYLQMSGLKSEDTATYYCARLYDGYYAYWGQGTTLTVSS VL: DVVMTQTPLSLPVSLGDQASISCRSSQSLVHSNGNTYLYWYLQKPGQSPKLLIYKVSNRFSGVPDRFSGSGSGTDFTLKISRVEAEDLGVYFCSQSTHVPLTFGAGTKLELK | binds
SCT-Fa018 (antibody, V domains shown, murine IgG) VH: EVKLVESEGGLVQPGSSMKLSCTASGFTFSDYYMAWVRQVPEKGLEWVANINFDGSSSYYLDSLKSRFIISRDNTKNILYLQMSSLKSEDTATYYCARLYDGYYAYWGQGTTLTVSS VL: DVVMTQTPLSLPVSLGDQASISCRSSQSLIHSNGNTYLYWYLQKPGQSPTLLIYKVSNRFSGVPDRFSGSGSGTDFTLKISRVEAEDLGVYFCSQSTHVPLTFGAGSKLELK | binds
SCT-Fa179 (antibody, V domains shown, murine IgG) VH: QVQLQQSGAELVRPGTSVKVSCKASGYAFSNYLIEWVKQRPGQGLEWIGVINPGNGGTTYNEKFKDKATLTADRSSTTAYMQLSSLTSEDSAVFFCARTAYGSPLDYWGQGTTLTVSS VL: DIKMTQSPSSMYASRGERVTITCKASQDINRYLSWLQQKPGKSPKTLIYRANRLVDGVPSRFSGSGSGQDYSLTISSLEYEDMGIYYCLQYDEFPYTFGGGTKLEIK | binds
SCT-Fa184 (antibody, V domains shown, murine IgG) VH: QVQLQQSGAELVRPGTSVKVSCKASGYAFTNYLIEWVKQRPGQGLEWIGVISPGSGGTTYNEKFKGKATLTADKSSSTAYMQFSSLTSEDSAVYFCARSAYGHVFDYWGQGTTLTVSS VL: DIKMTQSPSSIYASLGERVTITCKASQDINSYLKWFQQKPGKSPKTLIYRANRLVDGVPSRFSGSGSGQDYSLTISSLEYEDMGIYYCLQYDEFPYTFGGGTKLEIK | binds
SCT-Fa195 (antibody, V domains shown, murine IgG) VH: QVQLRQSGAELVRPGTSVKLSCKASGYTLTDYYINWVKQRPGQGLEWIARIYPGNGNTYYNEKFKGKATLTAEKSSSTVNMQVSSLTSEDSAVYFCARGGSSDRIYYYAMDYWGQGTSVTVSS VL: DIQVTQSSPFLSVSLGGRVIISCKASDHINNWLAWYQQKPGNAPRLLISGAINLETGVPSRFSGSGSGKDYTLSISSLQTEDVATYYCQQYWNTPYTFGGGTKLEIK | binds
SCT-Fa022 (antibody, V domains shown, murine IgG) VH: EVQLQQPGAELVKPGASVKLSCKASGYTFTSYWIHWVKQRPGRGLEWIGRIDPNSGGTKYNEKFKSKATLTVDKPSSTAYMQLSSLTSEDSAVYYCTKDGNTPYYAMDYWGQGTSVTVSS VL: SIVMTQTPKFLLVSAGDRVTITCKASQSVSNAVAWYQQKPGQSPKLLIYYASNRYTGVPDRFTGSGYGTDFTFTISTVQAEDLAVYFCQQDYSSPLTFGAGTKLELK | binds
SCT-Fa002 (antibody, V domains shown, murine IgG) VH: EFQLQQSGPELVKPGASVKISCKASGYSFTDYNMNWVKQSNGKSLEWIGVNNPKYGTTTYNQKFKGKATLTVDQSSSTAYMQLNSLTSEDSAVYYCARRGYYYGSSYGYFDVWGTGTTVTVSS VL: DILMTQSPSSMSVSLGDRVSIICHASQDIRSNIGWLQQKPGKSLKGLIYHGTNLEDGVPSRFSGSGSGADYSLTISSLESEDFADYYCVQYVQFPRTFGGGTKLEIK | binds
SCT-Fa183 (antibody, V domains shown, murine IgG) VH: QVQLQQSGAELVRPGTSVKVSCKASGYAFTNYLIEWVKQRPGQGLEWIGVISPGSGATTYNEKFKGKATLTADRSSTTAYMQLSSLTSEDSAVYFCARSAYGSPLDFWGQGTTLTVSS VL: DILLTQSPDILSVSPGERVSFSCRASQNIGTSIHWYQQRTNGSPRLLIKYASESISGISSRFSGSGSGTDFTLSINSVESEDIADYYCQQSNNWPFTFGSGTKLEIK | binds
SCT-Fa186 (antibody, V domains shown, murine IgG) VH: QVQLQQSGPELARPGASVKLSCKASGYTFRSNGISWVKQRTGQGLEWIGEIYPRSGNIYYNEKVKDKATLTADKSSNTAYMAVRSLTSEDSAVYFCARSTTVVAGGFDFWGQGTVLTVSS VL: DIVMTQSPSSLTVTAGEKVTMSCKSSQSLLNSRTQKNSLTWYQQKPGQPPKLLIYWASTRESGVPDRFTGSGSGTDFTLTISSVQAEDLAIYYCQNDYTYPWTFGGGTELEIK | binds
SCT-Fa193 (antibody, V domains shown, murine IgG) VH: QVQLRQSGAELARPGASVKLSCKASGYTFTSYGITWVKQRTGQGLEWIGEIYPRSGNIYYNEKFKGKVTLTADKSSSTAYMELRSLTSEDSAVYFCARSTAVVAGGFDYWGQGTTLTVSS VL: DVVMTQSPSSLTVTTGERVTVNCKSSQSLLNSRIQKNSLTWYQQKPGQPPKLLIYWASTRESGVPDRFTGSGSGTDFTLTISSVQAEDLAIYYCQNDYNYPWTFGGGTKLEIK | binds
SCT-Fa192 (antibody, V domains shown, murine IgG) VH: QVQLRQSGAELARPGASVKLSCKASGYTFTNYGITWVKQRTGQGLEWIGEIYPRSGNIYYNEKFKGKVTLTADKSSSTAYMELRSLTSEDSAVYFCARSTAVVAGGFDYWGQGTTLTVSS VL: DIVMTQSPSSLTVTTGEKVTVNCKSSQSLLNSRIQKNSLTWYQQKPGQPPKLLIFWASTRESGVPDRFTGSESGTDFTLTISSVQAEDLAIYYCQNDYNYPWTFGGGTKLEIK | binds
SCT-Fa178 (antibody, V domains shown, murine IgG) VH: QVQLQQSGAELVRPGASVTLSCKASGYTFTDYEMYWVKQTPVHGLEWIGVIDPETGGTAHDQKFKGKAILTADKSSSTAYMELRSLTSEDSAVYYCTRWAFWGQGTLVTVSA VL: QIVLTQSPAIMSASLGERVTMTCTASSSVSSSYLHWYQQKPGSSPKLWVYSTSNLASGVPGRFSGSGSGTSYSLTISSMEAEDAATYYCHHYNRSPPTFGGGTKLEIK | binds
SCT-Fa177 (antibody, V domains shown, murine IgG) VH: QVQLQQSGAELVRPGASVTLSCKASGYTFTDYEMYWVKQTPVHGLEWIGVIDPETGGTAHDQKFKGKAILTADKSSSTAYMELRSLTSEDSAVYYCTRWAFWGQGTLVTVSA VL: DVVMTQTPLSLPVSLGDQASISCRSSQSLVHSNGNTYLHWYLQKPGQSPKLLIYKVSNRFSGVPDRFSGSGSGTDFTLRISRVEADDLGVYFCSQSTHVPYTFGGGTKLEIK | binds

Now from value to binder:

binding result | Binder
binds | SCT-Fa175 (antibody, V domains shown, murine IgG) VH: QVQLQQSGAELVRPGASVTLSCKASGYTFSDYEMHWVKQTPVHGLEWIGVIDPETGDTAYNQKFKDKAVLTADKSSNTAYMELRSLTSEDSAVFFCTSNGYPEHWGQGTTLTVSS VL: QIVLTQSPAIMSASLGERVTMTCTASSGVSSTYLHWYQQRPGSSPKLWIYSTSTLASGVPARFSGSGSGTSYSLTISSMEAEDAATYYCHQYHRSPLTFGAGTKLELK
binds | SCT-Fa176 (antibody, V domains shown, murine IgG) VH: QVQLQQSGAELVRPGASVTLSCKASGYTFTDFEMHWVKQTPVHGLEWIGAIDPETGGTAYNQKFKGKAILTADRSSSTAYMELRSLTSEDSAVYYCTRGIYYGNYGSAMDYWGQGTSVTVSS VL: DVLMTQTPLSLPVSLGDQASISCRSSQSIVHSNGNTYLEWYLQKPGQSPKLLIYKVSNRFSGVPDRFSGSGSGTDFTLKISRVEAEDLGVYYCFQGSHAPLTFGAGTKLELK
binds | SCT-Fa008 (antibody, V domains shown, murine IgG) VH: EVKLVESEGGLVQLGSSMKLSCTASGFTFSDYYMAWVRQVPEKGLEWIANINFDGSGTYYLDSLKSRFIISRDNGKNILYLQMSGLKSEDTATYYCARLYDGYYAYWGQGTTLTVSS VL: DVVVTQTPLSLPVSLGDQASISCRSSQSLVHSNGNTYLYWYLQKPGQSPKLLIYKVSNRFSGVPDRFSGSGSGTDFTLKISRVEAEDLGVYFCSQSTHVPLTFGAGTKLELK
binds | SCT-Fa182 (antibody, V domains shown, murine IgG) VH: QVQLQQSGAELVRPGTSVKVSCKASGYAFTNYLIEWVKQRPGQGLEWIGVISPGSGATTYNEKFKGKATLTADRSSTTAYMQLSSLTSEDSAVYFCARSAYGSPLDFWGQGTTLTVSS VL: DIKMTQSPSSMYASLGERVTITCKASQDINRYLSWFQQKPGKSPKTLIYRVNRLVDGVPLRFSGSGSGQDYSLTISSLDYEDMGIYYCQQYDEFPYTFGGGTKLEIK
binds | SCT-Fa185 (antibody, V domains shown, murine IgG) VH: QVQLQQSGAELVRPGTSVRVSCTASGYAFTNYLIEWVKQRPGQGLEWIGVISPGSGGTTYNEKFKGKATLTADKSSSTAYMQFSSLTSEDSAVYFCARSAYGHVFDYWGQGTTLTVSS VL: DIKMTQSPSSMYASLGERVTITCKASQDINSYLKWFQQKPGKSPKTLIYRANRLVDGVPSRFSGSGSGQDYSLTISSLEYEDMGIYYCLQYDEFPYTFGGGTKLEIK
binds | SCT-Fa180 (antibody, V domains shown, murine IgG) VH: QVQLQQSGAELVRPGTSVKVSCKASGYAFTNYLIEWAKQRPGQGLEWIGVINPGSGATTYNEKFKGRATLTADMSSTTAYMQLSSLTSEDSAVFFCARTAYGSPLDCWGQGTTLTVSS VL: DIKMTQSPSSMYASLGERVTITCKASQDINRYLSWLQQKAGKSPKTLIYRENRLVEGVPSRFSGSGSGQDYSLTISSLEYEDMGIYYCLQYDEFPYTFGGGTKLEIK
binds | SCT-Fa020 (antibody, V domains shown, murine IgG) VH: EVQLHQSGPELVKPGASVKMSCKASGYTFTDYNMHWVKQSHGKSLEWIGYINPNNGGIIYNQNFKGKATLTVNKSSTTAYMELRSLTSEDSAVYYCVGSLDYWGQGTTLTVSS VL: DIQMTQTTSSLSASLGDRVTISCRASQDINNYLNWYQQKPDETVKLLIYYTSRLHSGVPSRFSGSGSGTDYSLTISNLDQEDFATYFCQQGYMLPLTFDAGTKLELK
binds | SCT-Fa174 (antibody, V domains shown, murine IgG) VH: QVQLQQSGAELVKPGASVKLSCKASGYSITGYYIHWVKQRPGQGLEWIGWIYPGSGSIKYNEKFKGKATLTADTSSSTADMQLSSLTSEDSAVYYCAREAWGNWYFDVWGTGTTVTVSS VL: DILLTQSPAILSVSPGERVSFSCRASQSIGTSIHWYQQRTNGSPRLLIKYASESISGIPSRFSGSGSGTDFTLSINSVESEDIADYYCQQSNSWPYTFGGGTKLEIK
binds | SCT-Fa181 (antibody, V domains shown, murine IgG) VH: QVQLQQSGAELVRPGTSVKVSCKASGYAFTNYLIEWVKQRPGQGLEWIGVINPGSGATNYNEKFKGKATLTADKSSSTAYMQLRSLASEDSAVYFCARRTTVVAPYAMDYWGQGTSVTVSS VL: DIQMTQTTSSLSASLGDRVTISCRASQDISNYLNWYQQKPDGTVELLIYYTSRLHSGVPSRFSGSGSGTDYSLTISNLEQEDIATYFCQQGNTLPRTFGGGTKLEIK
